± gives the standard deviation.

Here are results for 36 sequences from the supplement of paper PMC10567573.

The data set can be described thus: protein stability index of a GFP-peptide fusion (GPS, HEK-293T) (PSI 1-6); higher = more stable. The settings on record: c terminus: a fixed tail appended.
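Further: 24-mer peptide tiles fused after GFP, lentivirally expressed, FACS-sorted into six equal bins by GFP/DsRed ratio, decoded by Illumina sequencing, PSI is the read-weighted mean bin number.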

In the case of MFSDNSHCPDCGQQWFPSLELGHW [TOR1AIP2], the protein stability index was 2.33 ± 0.35 (treatment: DMSO) and 2.44 ± 0.34 (treatment: MLN4924 1 uM, 8 h).

With MGGSGSRLSKELLAEYQDLTFLTK [CIB1], the protein stability index was determined as 3.175 ± 0.031 (treatment: DMSO) and 3.27 ± 0.28 (treatment: MLN4924 1 uM, 8 h).

With MGPYNPDTCPEVGFFDVLGNDRRR [ACBD3], the protein stability index (treatment: DMSO) was 4.08 ± 0.37 and the protein stability index (treatment: MLN4924 1 uM, 8 h) was found to be 4.02 ± 0.35.

Take MGWKKACDELELHQRFLREGRFWK [ZMYND11]: the protein stability index by setting is: (treatment: DMSO) 2.52 ± 0.19; (treatment: MLN4924 1 uM, 8 h) 2.99 ± 0.18.

Turning to MLAEIFCQTGGVEDQEEWHAQVVE [ZBED1], the protein stability index by setting is: (treatment: DMSO) 3.05 ± 0.2; (treatment: MLN4924 1 uM, 8 h) 3.49 ± 0.4.

On to MLDMKVNPIQGLASKWDYEKNEWK [COX4I1], for which the protein stability index (treatment: DMSO) stood at 3.75 ± 0.18 and the protein stability index (treatment: MLN4924 1 uM, 8 h) came to 3.65 ± 0.21.

As for MLGRLGYLNHVRAASPQDLAGGYT [MNAT1], the protein stability index (treatment: DMSO) is 2.61 ± 0.14 and the protein stability index (treatment: MLN4924 1 uM, 8 h) came out at 2.59 ± 0.37.

As for MLSKGLKRKREEEEEKEPLAVDSW [SERTAD1], the protein stability index turned out to be 4.84 ± 0.25 (treatment: DMSO) and 4.87 ± 0.092 (treatment: MLN4924 1 uM, 8 h).

As for MNEVKESLRSIEQKYKLFQQQQLT [SPACA9], the protein stability index runs as follows: (treatment: DMSO) 3.33 ± 0.13; (treatment: MLN4924 1 uM, 8 h) 3.2 ± 0.22.

With MPIPEDLSTTSGGQQSSKSDRVVA [IKZF1], the protein stability index reads like this: (treatment: DMSO) 5.44 ± 0.16; (treatment: MLN4924 1 uM, 8 h) 5.39 ± 0.2.

For the sequence MQLPPALCARLAAGPGAAEPLPVE [ZNF511], the protein stability index (treatment: DMSO) is 3.97 ± 0.18 and the protein stability index (treatment: MLN4924 1 uM, 8 h) worked out at 3.86 ± 0.11.

As to MQVLVTAISPGRFPEALDELPLPP [ANKRD9], the protein stability index reads like this: (treatment: DMSO) 2.17 ± 0.48; (treatment: MLN4924 1 uM, 8 h) 2.23 ± 0.19.

Take MRPTLIDLLPTFRHTLQKLTCEFN [FBXO39]: the protein stability index (treatment: DMSO) stood at 2.35 ± 0.31 and the protein stability index (treatment: MLN4924 1 uM, 8 h) came out at 2.44 ± 0.54.

MRRQEPLPPPPPPSRGGNQLPRPP [WAS] returned a protein stability index (treatment: DMSO) of 4.8 ± 0.18 and a protein stability index (treatment: MLN4924 1 uM, 8 h) of 4.89 ± 0.17.

On to MSAQSVEEDSILIIPTPDEEEKIL [ZNF24], for which the protein stability index runs as follows: (treatment: DMSO) 5.08 ± 0.19; (treatment: MLN4924 1 uM, 8 h) 5.23 ± 0.1.

On to MSEMAELSELYEESSDLQMDVMPG [EID1], for which the protein stability index stood at 5.43 ± 0.088 (treatment: DMSO) and 5.25 ± 0.32 (treatment: MLN4924 1 uM, 8 h).

On to MSGSCAVCVDRVLYLFGGHHSRGN [KLHDC2], for which the protein stability index was 2.35 ± 0.55 (treatment: DMSO) and 1.75 ± 0.36 (treatment: MLN4924 1 uM, 8 h).

On to MSYDEISQLRLVCKRMDLVCQRML [FBXO28], for which the protein stability index came to 2.43 ± 0.34 (treatment: DMSO) and 2.25 ± 0.36 (treatment: MLN4924 1 uM, 8 h).

As to MTDGILGKAATMEIPIHGNGEARQ [ARFIP2], the protein stability index turned out to be 4.58 ± 0.16 (treatment: DMSO) and 4.57 ± 0.13 (treatment: MLN4924 1 uM, 8 h).

Turning to MTEKQQEEAEWESINVLLMMHGLK [CEP70], the protein stability index turned out to be 2.62 ± 0.27 (treatment: DMSO) and 2.73 ± 0.22 (treatment: MLN4924 1 uM, 8 h).

Consider MTEWKHQRITKQLEKWMQKNVEEN [GLT8D2], for which the protein stability index turned out to be 3.85 ± 0.21 (treatment: DMSO) and 3.97 ± 0.41 (treatment: MLN4924 1 uM, 8 h).

Sequence MTGRVCRGCGGTDIELDAARGDAV [BRF1] yielded a protein stability index (treatment: DMSO) of 3.65 ± 0.12 and a protein stability index (treatment: MLN4924 1 uM, 8 h) of 3.77 ± 0.18.

As to MTSSSAYYYTKVMSELFLHTPSDT [PKD2L1], the protein stability index reads like this: (treatment: DMSO) 2.51 ± 0.28; (treatment: MLN4924 1 uM, 8 h) 2.16 ± 0.28.

Regarding MVLSRPCHPDDQFTTSILRHWCMK [INTS3], the protein stability index runs as follows: (treatment: DMSO) 2.21 ± 0.18; (treatment: MLN4924 1 uM, 8 h) 2.26 ± 0.24.

Consider MVRSVAWAGFMVLLMIPWGSAAKL [CHIT1], for which the protein stability index was found to be 3.13 ± 0.57 (treatment: DMSO) and 2.87 ± 0.2 (treatment: MLN4924 1 uM, 8 h).

Consider MYPESTTGSPARLSLRQTGSPGMI [KCNAB2], for which the protein stability index runs as follows: (treatment: DMSO) 3.7 ± 0.51; (treatment: MLN4924 1 uM, 8 h) 4.1 ± 0.4.

For MYSSSCETTRNTTGIEESTDGMIL [LARP4], the protein stability index worked out at 4.33 ± 0.24 (treatment: DMSO) and 4.48 ± 0.23 (treatment: MLN4924 1 uM, 8 h).

As to NAILQLVKKYKSMKLEKEEFVTLK [ESRRG], the protein stability index amounted to 2.24 ± 0.37 (treatment: DMSO) and 2.29 ± 0.12 (treatment: MLN4924 1 uM, 8 h).

Consider NDTDFRVYLLGNPVVWWLNLLSIA [POMT2], for which the protein stability index by setting is: (treatment: DMSO) 2.89 ± 0.48; (treatment: MLN4924 1 uM, 8 h) 3.11 ± 0.47.

Turning to NFDHFEILRAIGKGSFGKVCIVQK [STK32A], the protein stability index turned out to be 2.87 ± 0.27 (treatment: DMSO) and 3.02 ± 0.24 (treatment: MLN4924 1 uM, 8 h).

Sequence NFSTFIKCIFTQFRIILGDFDYNA [PKD2L1] had a protein stability index (treatment: DMSO) of 2.98 ± 0.36 and a protein stability index (treatment: MLN4924 1 uM, 8 h) of 2.94 ± 0.41.

NGGMATTSAEIELPDVEPAAFLAL [BTBD1] had a protein stability index (treatment: DMSO) of 3.86 ± 0.25 and a protein stability index (treatment: MLN4924 1 uM, 8 h) of 4.02 ± 0.22.

For the sequence NGLEDIDRILERIEDSTGLNRPGP [TCF25], the protein stability index by setting is: (treatment: DMSO) 4.48 ± 0.21; (treatment: MLN4924 1 uM, 8 h) 4.75 ± 0.21.

The sequence NGSGDMIFEGNSEKEIPVLNELPV [CPXM2] showed a protein stability index (treatment: DMSO) of 4.79 ± 0.34 and a protein stability index (treatment: MLN4924 1 uM, 8 h) of 5.01 ± 0.25.

As to NKKYYKKFSIPDLDRHQLPLDDAL [DPCD], the protein stability index reads like this: (treatment: DMSO) 3.46 ± 0.13; (treatment: MLN4924 1 uM, 8 h) 3.55 ± 0.26.

The sequence NKLALQYGCKVADIKKVNNFIREQ [LYSMD4] yielded a protein stability index (treatment: DMSO) of 2.25 ± 0.22 and a protein stability index (treatment: MLN4924 1 uM, 8 h) of 2.38 ± 0.42.
